From the supplement of paper PMC10724198
± gives the standard deviation of the averaged measurements.

What was measured:
Saccharomyces cerevisiae [1] = test: protein stability index of tFT-peptide fusion (C-terminal peptide) (PSI (0-1 scale)); higher = more stable (slower turnover)
Experimental: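 MPS profiling in S. cerevisiae of the tFT-X12 degron library: putative degron peptides plus stable controls, 12 aa, fused to the C-terminus of a sfGFP-mCherry timer. Cells are FACS-sorted into 8 mCherry/sfGFP bins and deep-sequenced. PSI runs from 0 (unstable) to 1 (stable). Backgrounds are wild type, das1Δ and doa10Δ at 30 °C, and wild type, das1Δ, cdc34-1 and cdc53-1 at 37 °C; 2-3 technical replicates each.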

Saccharomyces cerevisiae [2] = test: as above; conditions: genetic background: wild type; temperature: 30 C
[3] = genetic background: cdc34-1, temperature: 37 C
[4] = genetic background: cdc53-1, temperature: 37 C
[5] = genetic background: das1 deletion, temperature: 30 C
[6] = genetic background: das1 deletion, temperature: 37 C
[7] = genetic background: doa10 deletion, temperature: 30 C
[8] = genetic background: wild type, temperature: 30 C
[9] = genetic background: wild type, temperature: 37 C
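Further: PSI is a weighted mean of sequencing reads over stability bins, variants kept only with over 10 reads, mCherry proximal and sfGFP distal, peptide attached via GGGS linker.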

Sequence	protein stability index (Saccharomyces cerevisiae [1]; [3])	protein stability index (Saccharomyces cerevisiae [1]; [4])	protein stability index (Saccharomyces cerevisiae [1]; [5])	protein stability index (Saccharomyces cerevisiae [1]; [6])	protein stability index (Saccharomyces cerevisiae [1]; [7])	protein stability index (Saccharomyces cerevisiae [1]; [8])	protein stability index (Saccharomyces cerevisiae [1]; [9])	protein stability index (Saccharomyces cerevisiae [2])
AFPSSVILMVFS	0.323 ± 0.036	0.32 ± 0.034	0.29 ± 0.032	0.425 ± 0.0063	0.228 ± 0.0063	0.287 ± 0.018	0.3872 ± 0.0029	0.332 ± 0.019
AFVVYSGSHGLV	0.686 ± 0.0094	0.75 ± 0.032	0.659 ± 0.014	0.7518 ± 0.0027	0.648 ± 0.011	0.654 ± 0.014	0.7186 ± 0.003	0.57 ± 0.2
AGALAVALPCIC	0.493 ± 0.011	0.506 ± 0.018	0.399 ± 0.03	0.531 ± 0.011	0.316 ± 0.0093	0.358 ± 0.028	0.48 ± 0.011	0.5 ± 0.046
AGGGGRFWVCVG	0.656 ± 0.027	0.7348 ± 0.0059	0.6377 ± 0.0058	0.726 ± 0.02	0.215 ± 0.00078	0.258 ± 0.028	0.5539 ± 0.0019	0.364 ± 0.11
ALLVLTVSYVFS	0.045 ± 0.011	0.0772 ± 0.044	0.0924 ± 0.028	0.188 ± 0.0081	0.057 ± 0.035	0.0839 ± 0.013	0.153 ± 0.031	0.167 ± 0.022
ALVWYSLSIIVN	0.0193 ± 0.0028	0.0815 ± 0.086	0.0515 ± 0.03	0.0682 ± 0.0034	0.0397 ± 0.0011	0.0403 ± 0.021	0.0736 ± 0.04	0.205 ± 0.064
APGGRGAAGPSC	0.67 ± 0.06	0.7207 ± 0.0065	0.631 ± 0.036	0.751 ± 0.033	0.639 ± 0.021	0.655 ± 0.033	0.704 ± 0.018	0.69 ± 0.029
ARALLGVGWYWV	0.654 ± 0.015	0.7854 ± 0.0065	0.645 ± 0.018	0.761 ± 0.02	0.225 ± 0.014	0.272 ± 0.02	0.537 ± 0.0059	0.417 ± 0.024
ARCKRSLSGGIG	0.489 ± 0.034	0.579 ± 0.02	0.512 ± 0.012	0.5452 ± 0.00083	0.531 ± 0.0073	0.524 ± 0.022	0.54 ± 0.011	0.588 ± 0.14
ARSGGYLMVVLV	0.56 ± 0.033	0.599 ± 0.011	0.41 ± 0.032	0.601 ± 0.011	0.351 ± 0.0013	0.384 ± 0.023	0.562 ± 0.038	0.463 ± 0.031
ASFVCWSVCALG	0.508 ± 0.026	0.545 ± 0.006	0.4 ± 0.022	0.525 ± 0.015	0.384 ± 0.029	0.398 ± 0.019	0.5104 ± 0.0049	0.413 ± 0.025
ASGFLVIPLWVF	0.41 ± 0.0072	0.4653 ± 0.0021	0.323 ± 0.029	0.491 ± 0.022	0.17 ± 0.0047	0.19 ± 0.018	0.255 ± 0.0083	0.294 ± 0.019
ASICAFFCWFLV	0.527 ± 0.035	0.58116 ± 0.00042	0.457 ± 0.023	0.601 ± 0.024	0.326 ± 0.0088	0.321 ± 0.026	0.497 ± 0.013	0.419 ± 0.022
ASSFYVDLVLVS	0.457 ± 0.014	0.464 ± 0.024	0.341 ± 0.034	0.516 ± 0.013	0.286 ± 0.0084	0.327 ± 0.046	0.484 ± 0.0065	0.447 ± 0.0094
AYACSILRCKSS	0.624 ± 0.015	0.727 ± 0.013	0.636 ± 0.012	0.713 ± 0.026	0.186 ± 0.016	0.219 ± 0.052	0.422 ± 0.04	0.34 ± 0.086
CAGRQGRERGHT	0.694 ± 0.03	0.7217 ± 0.0042	0.658 ± 0.043	0.722 ± 0.016	0.63499 ± 0.00057	0.658 ± 0.013	0.717 ± 0.036	0.695 ± 0.011
CALFLLSSPSPT	0.713 ± 0.061	0.781 ± 0.01	0.634 ± 0.018	0.768 ± 0.012	0.659 ± 0.021	0.6451 ± 0.0031	0.7356 ± 0.0054	0.699 ± 0.011
CASIVDGFAFRF	0.752 ± 0.0086	0.782 ± 0.03	0.632 ± 0.011	0.786 ± 0.0097	0.646 ± 0.023	0.679 ± 0.046	0.7472 ± 0.0015	0.7662 ± 0.0074
CFCPILFPRCLA	0.476 ± 0.048	0.636 ± 0.016	0.579 ± 0.045	0.6659 ± 0.0023	0.142 ± 0.017	0.139 ± 0.021	0.19 ± 0.013	0.25 ± 0.072
CFGFMFLLLFDV	0.3073 ± 0.0011	0.312 ± 0.0066	0.334 ± 0.024	0.448 ± 0.013	0.467 ± 0.011	0.317 ± 0.027	0.418 ± 0.0039	0.405 ± 0.02

Sequence	protein stability index (Saccharomyces cerevisiae [1]; [3])	protein stability index (Saccharomyces cerevisiae [1]; [4])	protein stability index (Saccharomyces cerevisiae [1]; [5])	protein stability index (Saccharomyces cerevisiae [1]; [6])	protein stability index (Saccharomyces cerevisiae [1]; [7])	protein stability index (Saccharomyces cerevisiae [1]; [8])	protein stability index (Saccharomyces cerevisiae [1]; [9])	protein stability index (Saccharomyces cerevisiae [2])
CFRRPLLRVVLT	0.502 ± 0.014	0.5681 ± 0.0051	0.451 ± 0.037	0.59 ± 0.025	0.4289 ± 0.0035	0.435 ± 0.017	0.569 ± 0.0089	0.506 ± 0.018
CFSYLLIVLLFP	0.168 ± 0.019	0.2273 ± 0.00043	0.198 ± 0.024	0.334 ± 0.031	0.216 ± 0.0065	0.17 ± 0.045	0.307 ± 0.0052	0.279 ± 0.005
CFVPFFLPLCAF	0.0255 ± 0.0085	0.0285 ± 0.0074	0.0864 ± 0.03	0.109 ± 0.058	0.144 ± 0.0073	0.0733 ± 0.019	0.0588 ± 0.022	0.139 ± 0.016
CGILACSVCTFF	0.547 ± 0.071	0.6516 ± 0.0037	0.427 ± 0.027	0.6336 ± 0.0037	0.405 ± 0.016	0.436 ± 0.024	0.61 ± 0.023	0.509 ± 0.021
CGLLWFYSFFLF	0.502 ± 0.019	0.491 ± 0.013	0.391 ± 0.04	0.5187 ± 0.0046	0.375 ± 0.012	0.316 ± 0.013	0.465 ± 0.018	0.38 ± 0.021
CGLYNQFCLFLY	0.561 ± 0.04	0.626 ± 0.022	0.527 ± 0.018	0.6526 ± 0.0024	0.2274 ± 0.0022	0.217 ± 0.029	0.37 ± 0.0043	0.31 ± 0.027
CGVWVVVASAYR	0.43 ± 0.019	0.483 ± 0.03	0.302 ± 0.02	0.49431 ± 0.00019	0.2812 ± 0.0017	0.304 ± 0.019	0.508 ± 0.0093	0.377 ± 0.03
CGWVRRARVKMM	0.622 ± 0.073	0.693 ± 0.01	0.63 ± 0.026	0.709 ± 0.014	0.114 ± 0.03	0.137 ± 0.029	0.226 ± 0.0087	0.241 ± 0.015
CHFLLPFLFTCA	0.225 ± 0.027	0.28 ± 0.0099	0.244 ± 0.043	0.3685 ± 0.00097	0.1949 ± 0.0015	0.221 ± 0.024	0.309 ± 0.0071	0.332 ± 0.006
CLASCRHRTYLC	0.652 ± 0.026	0.7142 ± 0.0013	0.641 ± 0.023	0.7223 ± 0.0018	0.338 ± 0.015	0.364 ± 0.025	0.58 ± 0.016	0.483 ± 0.12
CLFRVCLFILSI	0.397 ± 0.019	0.49 ± 0.049	0.333 ± 0.038	0.489 ± 0.0053	0.3114 ± 0.00076	0.3 ± 0.028	0.467 ± 0.013	0.386 ± 0.0041
CLLGMKSRTILV	0.347 ± 0.029	0.33 ± 0.0047	0.289 ± 0.028	0.4262 ± 0.0024	0.236 ± 0.006	0.287 ± 0.03	0.397 ± 0.015	0.377 ± 0.014
CLLSRYRVFFLG	0.629 ± 0.071	0.7205 ± 0.0048	0.591 ± 0.023	0.706 ± 0.026	0.134 ± 0.014	0.184 ± 0.026	0.351 ± 0.017	0.29 ± 0.056
CLWLRCIVSILP	0.121 ± 0.0082	0.248 ± 0.0081	0.184 ± 0.028	0.321 ± 0.01	0.16 ± 0.0074	0.168 ± 0.025	0.30428 ± 0.00014	0.239 ± 0.034
CPVSFSFCLKVL	0.348 ± 0.019	0.431 ± 0.03	0.32 ± 0.026	0.468 ± 0.016	0.0628 ± 0.019	0.0823 ± 0.021	0.115 ± 0.063	0.045 ± 0.016
CRCLFVVKNWLS	0.62 ± 0.039	0.706 ± 0.012	0.623 ± 0.015	0.688 ± 0.04	0.147 ± 0.029	0.167 ± 0.013	0.293 ± 0.06	0.262 ± 0.017
CSRTRLHCFTAS	0.696 ± 0.062	0.7452 ± 0.0029	0.647 ± 0.028	0.74183 ± 0.00066	0.5808 ± 0.0019	0.585 ± 0.027	0.6796 ± 0.005	0.712 ± 0.011
CSSIFSSSDCYA	0.681 ± 0.059	0.7582 ± 0.0047	0.672 ± 0.029	0.7219 ± 0.0061	0.68 ± 0.01	0.68 ± 0.018	0.731 ± 0.011	0.7457 ± 0.0014
CVFCRVAVGVDG	0.5389 ± 0.0011	0.5838 ± 0.0043	0.438 ± 0.03	0.616 ± 0.0086	0.428 ± 0.028	0.439 ± 0.0076	0.5899 ± 0.0034	0.516 ± 0.026
